Data taken from PMC11591356, “Immunomodulatory Effects of the Tobacco Defensin NaD1” (Antibiotics, 2024).
Ends that are not written are not given here.

Experiments:
[1] = tested on: Caco-2 polarized monolayer; assay: Caco-2 permeability assay, bidirectional transport; assay type: in vitro ADME, human; settings: Caco-2 polarized monolayer (21 days, TEER > 400 Ω cm^2), 5 µM FITC-labeled NaD1, HBSS transfer buffer pH 7.4, 90 min
Procedure: Caco-2 (ATCC HTB-37) cells were thawed and cultured in complete DMEM/F-12 culture medium (Corning), supplemented with 10% FBS in a humidified CO2-intubator. After the culture was subcultivated three times, the cells were seeded on cell inserts (PET, 0.4 μm, 0.6 cm^2 surface area, SPL Life Sciences, Pocheon-si, Republic of Korea) at a density of 2.5 × 10^5 cells/cm^2. Cells were grown for 21 days with re-feeding with the fresh medium every 2–3 days. To evaluate integrity of Caco-2 monolayer, a transepithelial electrical resistance (TEER) was measured by Millicell ERS-2 Voltohmmeter (Merck-Millipore, Burlington, MA, USA). Only inserts with TEER > 400 Ω cm^2 were used in the transport assay.
The permeability assay was conducted in transfer buffer (HBSS solution, containing 1 mM CaCl2, 1 mM MgCl2, 10 mM D(+)glucose, pH 7.4). […]
The apparent permeability coefficients (Papp) were calculated for each insert according to the following equation: Papp = dQ/dt × (1/(A × C0)), where dQ/dt is an amount of product present in the basolateral or apical chamber as a function of time (nM/s), A is an area of the insert (in cm^2) and C0 is an initial concentration of NaD1 in the apical or basolateral chamber (nM/mL). […]

PBMCs = assay: Cytotoxicity assay, resazurin method, PBMCs; assay type: cell-based, human; settings: for Cell viability: PBMCs, 24 h, resazurin
From the text: Peripheral blood mononuclear cells (PBMCs) from healthy donors were purchased from American Type Culture Collection (ATCC PCS-800-011). Primary monocytes were isolated from PBMCs by adherence to the plastic surface. For that, PBMCs were thawed, resuspended in RPMI-1640 culture medium (Corning, Corning, NY, USA) without serum at a concentration of 2 × 10^6 cells/mL, seeded into the wells of a 24-well plate and placed in a humidified CO2-intubator (CellXpert C170i, Eppendorf, Hamburg, Germany) for 1 h. After that, non-adherent cells were removed from the wells and attached monocytes were thoroughly washed with PBS and cultured in a CO2-intubator in complete RPMI-1640 containing 10% human serum (HS Type AB, Capricorn Scientific, Ebsdorfergrund, Germany) and 1×antibiotic-antimycotic (1×AA) solution (Sigma, St. Louis, MO, USA).
The cytotoxic effects of the tobacco defensin NaD1 towards PBMCs or Caco-2 cells were investigated in 96-well plates using the resazurin method as previously described. In brief, 4 × 10^5 per well Caco-2 cells not in a monolayer as well as Caco-2 cells in a monolayer in DMEM/F12 (1:1) medium with 10% FBS or 2 × 10^6 PBMCs per well in RPMI-1640 also with 10% FBS were incubated with serial dilutions of NaD1 at final concentrations from 0.39 to 50 μM or from 2.1 to 180 μM for 24 h. After that, resazurin (Sigma, St. Louis, MO, USA) was added at a final concentration of 70 µM and the plates were incubated overnight (16–18 h). Untreated cells and cells treated by non-ionogenic detergent Triton X-100 were used as negative and positive controls, respectively. […] The cell viability was estimated by resorufin fluorescence registered at […] via the following equation: cell viability (%) = (Fsample/Fcontrol) × 100%. Experiment was carried out twice in duplicate.

## NaD1: Recombinant tobacco floral defensin NaD1 (UNIPROT Q8GTM0), obtained by heterologous expression in E. coli; FITC-labeled in the permeability assay (RECKTESNTFPGICITKPPCRKACISEKFTDGHCSKILRRCLCTKPC; cysteine pairing not given here; also: FITC label; UniProt Q8GTM0 26-72, looked up)
[1]; apical to basolateral, mean of 6 independent inserts
  Apparent permeability coefficient Papp, A→B (absorptive): 2.72 ×10⁻⁶ cm/s
[1]; basolateral to apical, mean of 4 independent inserts
  Apparent permeability coefficient Papp, B→A (secretory): 2.22 ×10⁻⁶ cm/s
PBMCs; peptide 50 µM, twice in duplicate
  Cell viability: approximately 90%
PBMCs; peptide 180 μM
  Cell viability: more than 50%
PBMCs; peptide 12.5 µM, PBMCs and Caco-2
  Cytotoxic effect against the tested immune and epithelial cells: did not exhibit a cytotoxic effect
